The source of these data is PMC9044925.

Test [1] addresses PTP-CIF3 (Trypanosoma brucei). Put plainly: co-IP; PTP-tagged protein precipitated from T. brucei lysate with IgG-Sepharose beads, 30 min at 4°C, IP buffer, five washes; 3HA-tagged partner detected by anti-HA immunoblot; complementation lines induced with tetracycline. Background: In western blotting, separated proteins are transferred to a membrane and probed.
Test [2] deals with CIF1 (endogenous) (Trypanosoma brucei (endogenous in T. brucei cells)). Put plainly: co-IP; endogenous CIF1 or TbPLK precipitated from T. brucei lysate with anti-CIF1 or anti-TbPLK antibody and protein A-Sepharose beads, 30 min at 4°C, IP buffer; 3HA-tagged CIF3* and mutants detected by anti-HA immunoblot; band intensity by ImageJ, normalised to CIF1 and compared with the input.

“CIF1-3HA (ectopic, full-length CIF1) (natural protein)” displayed a percent of the input protein immunoprecipitated in test [1] of 50%.

In turn, CIF1-ΔIDR1-3HA (domain or fragment) came in with a percent of the input protein immunoprecipitated in test [1] of 24%.

For CIF1-ΔIDR2-3HA (natural protein), the percent of the input protein immunoprecipitated in test [1] turned out to be 72%.

As to “CIF3*-3HA (full-length recoded, RNAi-resistant CIF3) (natural protein)”, the percent of the input protein immunoprecipitated in test [2] was determined as 21%.

Substance CIF3*-ΔCC1-3HA (domain or fragment) registered a percent of the input protein immunoprecipitated in test [2] of 16%.

CIF3*-ΔCC2-3HA (natural protein) came in with a percent of the input protein immunoprecipitated in test [2] of 31%.

Substance CIF3*-ΔCC3-3HA (natural protein) registered a percent of the input protein immunoprecipitated in test [2] of 3%.
